Assay: label from the status in PepcDB records

Sequence	protein production
MKTVPAMLGTPRLFREFFILHLGLWSILCEKATKRNDEECEVQLNIKRNSKHSAWTGELFKIECPVKYCVHRPNVTWCKHNGTIWVPLEVGPQLYTSWEENRSVPVFVLHFKPIHLSDNGSYSCSTNFNSQVINSHSVTIHVRERTQNSSEHPLITVSDIPDATNASGPSTMEERPGRTWLLYTLLPLGALLLLLACVCLLCFLKRIQGKEKKPSDLAGRDTNLVDIPASSRTNHQALPSGTGIYDNDPWSSMQDESELTISLQSERNNQGIVYASLNHCVIGRNPRQENNMQEAPTEYASICVRS	not failed
MNINVKDIIADSHLAFLNQENETALRLARQAISLAPDNPDAYRCAGNACMSLDRYDEAIEYYRTAVKYDPDNGNRYYDLGFALASAERFSDALKNLAKAEELGCTPENLVQLYNLLGILCFDIGRYDDALVNLNKAEKLIGIDVDILKRKAVIYGIKNDIKNGLMTANQIKLVTPSEYTGYQIAFKLLVQAKRLDEAEKELERARKYASPTMDFYFDYMTLELEKYKTDNDKEHFKTALGMIEKALKTVKPTVKEVVESYINAAEIYLQLEDADRAIECLNAAQNPIWAYNNGFDVVVRNYEPVTLTEYDIEDMIEADRKKIEEQFGDYGFEEMVESIEPDEEGNRDYLTVIEDEVKSDAKEDSEVYKLDESEKVEYSSDNIDQINRLYVGAYTVKKDFEKVIEYSRKLQASENTYSVYLGKYTEANAMKELGLPDFAAKYEEIIKFFRNAMIKDPTDLTAVTFRVQCYIDIGQYDEAEQLCSLLTKEVRNSFMEKIKKAKSGGEQH	failed
MATPKFAEIKQYITGCIESGEWEENARVPSENQLAELFVCSRMTARRALTELTDNGVLERSQGLGTFVAGRKSQSSMLAIRNIADEIKDRGHGYSVQQLALEQVNATAPIAIALALDVGSPVFHSILVHCEQGVPLQVEERYVNPAFAPDYLVQDFSEQTPHEYLSQVAPLTEAHHTIEAIIASSELQQRLAIPATEPCLQISRRTWSRQGVVSFAKLVHPGSRFKLGGHLTFNK	failed
YLKLVRIYTKPKGQLPDYTSPVVLPYSRTTVEDFCMKIHKNLIKEFKYALVWGLSVKHNPQKVGKDHTLEDEDVIQIVKK	not failed
MIDMFPMEKGEEQETYELIVRVFHKYVAPVYSENGVARFLGMLSPEGLSEMNNGKNSFVIVARDQSKIIGMISVINDSHIALFFVSPRYQGKGIGKNILDEAIKNCLNRNPELSAVTVSSSPNSKSFYEEAGFEVIGNEINEEGLRFTPMRKLLRQLEHHHHHH	failed
IPGSPFTAKITDDSRRCSQVKLGSAADFLLDISETDLSSLTASIKAPSGRDEPCLLKRLPNNHIGISFIPREVGEHLVSIKKNGNHVANSPVSIMVVQSEIGD	not failed
MSPFTGSAAPTPEWRHLRVEITDGVATVTLARPDKLNALTFEAYADLRDLLAELSRRRAVRALVLAGEGRGFCSGGDVDEIIGATLSMDTARLLDFNRMTGQVVRAVRECPFPVIAALHGVAAGAGAVLALAADFRVADPSTRFAFLFTRVGLSGGDMGAAYLLPRVVGLGHATRLLMLGDTVRAPEAERIGLISELTEEGRADEAARTLARRLADGPALAHAQTKALLTAELDMPLAAAVELDASTQALLMTGEDYAEFHAAFTEKRPPKWQGR	not failed
MTTTIEVGMLGLGTVGSGVVERLTRSAAKIEQTQGIRLHLAAVAVNHLNAPRTVQLPIGTRLTDSLTNVVCDRKIQLVIEVMGTVATAKKAIVAALNQGKAVVTANKDLIATAGPELAALAKKQGCDLFYEASVAGGIPILRTLTDSYVTDNVQAVSGIINGTANYMLSAMATGQSYEQALATAQATGYAEADPTNDVAGIDAAYKLMILSRFAFGQELSLPQIAPTGITHLSASVCRLAAENGWQIKLLAQIQRHGSGLYCRVAPVAVPVDQPLSQINGVQNAVAVQSEAIGTSLYTGPGAGSTATANSVLNDVLVAAKHLINGYRMIRNQKRSVSLTVTRFDQLPQTYLGIGPVAPEAVKYYANEADFSVKTIADDCYQITGLSAVKRKKLRANLPLTLIPIAGTTDWKQVTENSITSPINVAILEHHHHHH	not failed
MAAGAAEAAVAAVEEVGSAGQFEELLRLKAKSLLVVHFWAPWAPQCAQMNEVMAELAKELPQVSFVKLEAEGVPEVSEKYEISSVPTFLFFKNSQKIDRLDGAHAPELTKKVQRHAS	not failed
MDTEMLIDKYQLNDSEAAVLRFMDKNRDCLKSLGIREVAKASYVSTTAIINMAKKIGYSGYSELVFAYGNKHSSISFPENFSNEEKDEFIRLLSRYREKRIMVLGSGFSQNIANHFSEMLNLYGFRATANSHLEFLRENVEKDVLIFIVSNSGDTLRLAELVKLAKNHHIDLIAFVGEKKSKIGQLATLTISTETYNPQVVSEYQPNLFFGTALNQFELLLSEALKSIFI	not failed
MTAYWIAHVTIHDMQQYQEYMKLAPAAFQKYGAKFLARGGESVCVEGQAYQRHVIIEFPDLATAQQCYDSEEYKQARLAREGCADVMISFVEG	failed
MEQLDAIRRLNVAIFDDAHIIETFERDDLLMLLARSGGTDVGFKLGYRLNEAAFYSAKGGVHPAHRRNGIARALLYDMLDVVAGRGYERFVYDTFPNKHPGMTVLGLDEGFEVIRAGYSAKYQDYRLRFAWTFDAA	failed
MTHTRRALSTVGKGLAALRHLLPLLLCLLVLAGCAKAPYTGRSQFIMVSPQQEMALGQQESRKILSKEPVKTGTDEAQRVETVGRRIAAAARRGDFRWEFHLIGKDVANAFCLPGGKVFVYEGIFKYADTDAELATVMAHEVGHAIARHGAERMSRAMMVQMGHDAAAIALGVAGGSPAAVQAFSQAYGTGANVGLMLPFGREQEYEADRIGLMLMAQAGYDPRAALDFWRKMSSAPGKRPPEFLSTHPTGQHRIAELQARMGDALRVYRPPSGK	failed
MNAEHAVTLRAPAADWERSEREARQAAAYVAAFVGVPAVVAAAAALALFALTALVLLAPLVACVLTWAAWRYGRPERRGARRA	failed
MLPGVGVFGTSLTARVIIPLLKDEGFAVKALWGRTQEEAEELAKEMSVPFYTSRIDEVLLHQDVDLVCINLPPPLTRQIAVKTLGIGKNVICDRTATPLDAFRMTSAAHYYPKLMSIMGNVLRFLPAFVRMKQLIEEGYVGEPLVCEVQVHGGSLLGKKYNWSCDDLMGGGGLHSVGTYIIDLLTFLTGQKAVKVHGLLKTFVKQTDHIKGIRQITSDDFCTFQMVLEGGVCCTVTLNFNVPGEFKQDVTVVGSAGRLLAVGTDLYGQRNSAPEQELLVQDATPVSNSLLPEKAFSDIPSPYLRGTIKMMQAVRQAFQDQDDRRTWDGRPLTMAATFDDCLYALCVVDTIKRSSQTGEWQNIAIMTEEPELSPAYLISEAMRRSRMSLYC	failed
MTNQSHDDDDDDEQLPRSLFRLVSLPQKTMTNQTHDDDDDDEQLPLSLTLGSTSYSSQIRPVKSPVPIAPPPEFPGPVTTWPTPADFLATRSMVPDPPPPSHQIPLWMSNYFQQTPNPPQLVTHFFPPSGLAPPSSNLTPPPVKRPVTGSVRIYRSRSTVSKKSDTISPPFPWATNRRGEIQSLEYLESNQITTITGEVQCRHCEKVYQVSYNLRERFAEVVKFYLTEKRKMRDRAHKDWAYPEQRRCELCGREKAVKPVIAERKSQINWLFLLLGQTLGFCTLEQLKNFCKHSKNHRTGAKDRVLYLTYMGLCKMLQPKSDLFTCVAGKR	failed
MIVPGGFPAPVTGSAVAASPPLPTVRLLSLDAHGRVLDWINWQDAACLYARDAVSWTLGEPCMQIHGGVSRLTGERSVLELHPIIAARGHARSRALDPTPTLTNTALFARDSQLCMYCGQHFSRPHLTRDHVMPVSKGGRDSWENVVTACFQCNSRKANRTPQQAHMPLLAVPYRPSWIEHLILSNRNILSDQMAFLRAQLPKRSKLSLLEHHHHHH	failed
MRLIERYLFRQLLGPTLLATAALVALALLARSLSEFDVLVEQRQSALVFLKIILLALPQLLGIMMPLALFVAALVALNRLHTEQEIVVCFAGGMSRWRVISPAMRLAVIAALISLISGLWLQPWSARQIRETAFQIKTDVAATLVQPGQFTEPGPGLTVYAQSIDRDNKIQNLFIHQELPNGAASTYSSREAEIATRKGEPVLIMRHGSNQQFSRDGVLQYTSFDEYTFDLSSLFHSDELLHYKIADRYPHELFFPDLTQEWEQRNKDKLLAEGHSRFAGPLYNIALMSMALAAVLGGSFSRMGYGKRIAAVGAAAAIVRIVGFGVQAACEDDPWLNVLQYIVPLAATAWAMSQIFRQRVSPRRKTKPATPAPAFSGAA	failed
MAERAMSVTPYWELTFDADGDVDGRERDRLLAQVAQRKVHDLVVFAHGWNNERSGATRLYSRFFQPVPALAPRARLGYVGVVWPSMIFPDEPIPDFPASVPAEVTAVARPALAKGARQALVEVFPDRATLVEQIARLLERHPDEEASLETFGQLVRLLVEARPQDPQDACAADTLATGGPVSGPEMLSGDTALVCRDFARALDRVASLHGTSAASGAVDFSFTPAGLWDGAHELLRQATYYAMKRRAGTVGERGLGRVLGRLAQAAPDVRVHLVGHSFGGRLVSFALRGLPAGVRTVKSVTLLQGAFSHYAFAARLPHDTHASGALHGLQSRIDGPLVCCYSHFDSALGTMYPLASRMAGDARSAAGELGADFDIGRTLGPRWGAMGHDGVQAVDGTRAFTLAEALRAELPASGCVNVDAAAVVKRGGPPTGAHSDIVHRELAQVVLAAGRIR	failed
MTSYIILKHLHMTTAYLTITLFALRLLLDAVGRPGWRQTPLRFIPHINDTILLVAAIALVFVAGYASAMPGWLITKIVLLFGYIIAGVFALKTTVGKPARIVAAVLALVQVSAIFHLAMAKPF	failed
MDVTIERVNDFDGYNWLPLLAKSSQEGFQLVERMLRNRREESFQEDGEAMFVALSTTNQVLACGGYMKQSGQARTGRIRHVYVLPEARSHGIGTALLEKIMSEAFLTYDRLVLYSEQADPFYQGLGFQLVSGEKITHTLDKTAFADSNR	not failed
MNLLVTSSLGVLLHLVVLCQADDHSELLVNTKSGKVMGTRVPVLSSHISAFLGIPFAEPPVGNMRFRRPEPKKPWSGVWNASTYPNNCQQYVDEQFPGFSGSEMWNPNREMSEDCLYLNIWVPSPRPKSTTVMVWIYGGGFYSGSSTLDVYNGKYLAYTEEVVLVSLSYRVGAFGFLALHGSQEAPGNVGLLDQRMALQWVHDNIQFFGGDPKTVTIFGESAGGASVGMHILSPGSRDLFRRAILQSGSPNCPWASVSVAEGRRRAVELGRNLNCNLNSDEELIHCLREKKPQELIDVEWNVLPFDSIFRFSFVPVIDGEFFPTSLESMLNSGNFKKTQILLGVNKDEGSFFLLYGAPGFSKDSESKISREDFMSGVKLSVPHANDLGLDAVTLQYTDWMDDNNGIKNRDGLDDIVGDHNVICPLMHFVNKYTKFGNGTYLYFFNHRASNLVWPEWMGVIHGYEIEFVFGLPLVKELNYTAEEEALSRRIMHYWATFAKTGNPNEPHSQESKWPLFTTKEQKFIDLNTEPMKVHQRLRVQMCVFWNQFLPKLLNATACDGELSSSGTSSSKGIIFYVLFSILYLIF	not failed
MKQWADDENLPMERYKNYQMIVPAFIIKDILDGKIPETFEDSKNIKMIEASWGEESYTKGHIPTSVHVNTDIIEPPPTWMLDNDDNLTKFALDYGLTKDDTVIVSSSTPMASYRLAVILRYIGVKDVRVLNGGTNSWLSAGYELEFISNPKLEHHHHHH	failed
AGHRGQCVGRHREVVAIDNSKATNPHAADSALAGFSSVVWVAGGQLKGAEIDELIVRHAGRIKAVALLGVDRDVIEDSVRTHIPGIPVLSVSETDPRRAMDEAVAWSVSQAEAGDAIVLAPAAASLDMYTGMGQRGDMFATAIAQHLHD	failed
AIASERLYYFVIVGRDDRVLYDLLYPASLSELDWRTSSELSSPAERGDFEPHHFIPSIQVLLQFVAYSALDHIEEKYWLTSARSLKHIFRFRDWSASVQLTPNAATRFVLVHGASDDASRNVRAFLHAVYEAYVPHVVCNPFQEEDAPITSKRFHEVAKNLAKRYFSG	failed
